From publication PMC9287321 (Scientific Reports, 2022)

Target: T1, AFP_(158–166) peptide complexed with HLA-A*02:01 (Homo sapiens, HLA-A*02:01)
T1 construct: HLA-A*02:01 heavy chain, soluble recombinant; β2-microglobulin, recombinant; alpha-fetoprotein (AFP) peptide, residues 158–166; also called AFP/HLA-A*02; AFP/HLA-A*02 complex; copies: + +
Assay: SPR; Biacore T200, CM5 chip; AFP/HLA-A*02 amine coupled (100–200 RU); kinetic titration, five injections of increasing TCRm, 100 μL/min, 25 °C; 1:1 binding model; mean of three experiments
Conditions: both partners purified

Kd: 7 nM
B1: anti-AFP TCRm antibody, Fab fragment (Fab, V domains shown)
VH: EVQLVQSGAEVKKPGESLTISCKASGYSFPNYWITWVRQMSGGGLEWMGRIDPGDSYTTYNPSFQGHVTISIDKSTNTAYLHWNSLKASDTAMYYCARYYVSLVDIWGQGTLVTVSS
VL: QSVLTQPASVSGSPGQSITISCTGTSSDVGGYNYVSWYQQHPGKAPKLMIYDVNNRPSEVSNRFSGSKSGNTASLTISGLQAEDEADYYCSSYTTGSRAVFGGGTKLTVL
notes: Fab cut by papain from human IgG1; also called TCR mimic antibody; TCRm Fab fragment
